Measured values as given in the nanobody polyreactivity screen of Harvey et al. (2022).

Test: yeast display, Sf9 membrane polyspecificity reagent, FACS + sequencing; frameworks hold sequencing errors
Outline: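 Using colony PCR, genes from sorted yeast display clones were amplified, then sequenced on MiSeq at 2 × 250 and filtered by CDR length. The clones had been stained with 10% biotinylated, detergent-solubilized Sf9 membrane reagent for 1 hour at 4 °C and sorted by FACS into low and high (top ~1%) gates on anti-HA and streptavidin fluorescence. Polyreactivity labels come from the gate of origin.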

Row | Sequence | polyreactivity (PSR sort gate)
1 | QVQLVESGGGLVQAGGSLRLSCAASGSIFKRNAMGWYRQAPVKETELVAAITRSGSSTYYADSVKGRFKISRDNAKNTVYLQFNSLKPEDTSVYYCAAQYESNGYTGYYWGQGTQVSVSS | high polyreactivity
2 | QVQLVESGGGLVQAGGSLRLSCAASGSIFKRNDMGWYRQAPGKDRELVASISSGGSTHYADSVKGRFTISRDNAKNTVSLQMNSLKPEDTAVYYCAATSIRWSVGSFRRDYWGQGTQVTVSS | low polyreactivity
3 | QVQLVESGGGLVQAGGSLRLSCAASGSIFKRNPMGRYRQAPGKERELVAGISRRAGSTYYADYVKGRFTISRDNAKNTDYLQMNSLKPEDTAVYYCATYSFRGTYRYDYWGQGTQVTVSS | high polyreactivity
4 | QVQLVESGGGLVQAGGSLRLSCAASGSIFKRNTMGWYRQAPGKERELVAAISASGGRTYYADSVKGRFTISRDNAKNTVYLQMNSLKPEDTAVYYCNARFRIGRSELDYWGQGTQVTVSS | low polyreactivity
5 | QVQLVESGGGLVQAGGSLRLSCAASGSIFKRYAMGWYRQAPGKERELVAAISYSGGSTYYADSVKGLFTISRDNAKNTVYLQMNSLKPEDTAVDYCARGWFYPYYWGQGTQVTVSS | high polyreactivity
6 | QVQLVESGGGLVQAGGSLRLSCAASGSIFKSNGMGWNRQAPGKERELVAAITGSGGTTYYADSVKGRFTISRDYAKNTVYLQMNSLKPEDTAVYYCAAVNYYWGQGTQVTVSS | low polyreactivity
7 | QVQLVESGGGLVQAGGSLRLSCAASGSIFKTNAMGWYRQAPGKERELVAAIRASGGSTYYADSVKGRFTISRDNAKNTVYLQMNSLKPEDTAVYYCAARYWFKYYWGQGTQVTVSS | high polyreactivity
8 | QVQLVESGGGLVQAGGSLRLSCAASGSIFKVNAMGWYRQAPGKERELVAAISGNTDTTYYADSVKGRFTISRDNAKNTVYLQMNSLKPEDTAVYYCAADAYIKYYFRWINMYYWGQGTQVTVSS | high polyreactivity
9 | QVQLVESGGGLVQAGGSLRLSCAASGSIFKWYAMGWSRQAPGKERELVAAITNGGGSTYYADSVKGRFTISRDNAKNTVYLQMNSLKAEDTAVYYCAKDGHSYYPWVYDYWGQGTQVTVSS | low polyreactivity
10 | QVQLVESGGGLVQAGGSLRLSCAASGSIFKWYAMGWYRQAPGKERELVAAITRGGSTNYADSVKGRFTISRDNAKNTVYLQMNSLKAEDTAVYYCNAVYTYRSGFGYWGQGTQVTVSS | low polyreactivity
11 | QVQLVESGGGLVQAGGSLRLSCAASGSIFKWYTMGWYRQAPGKERELVAGISRGGSTYYADSVKGRFTISRDNAKNTVYLQMNSLKPEDTAVYYCAKASAIWRGDVKYYYWGQGTQVTVSS | high polyreactivity
12 | QVQLVESGGGLVQAGGSLRLSCAASGSIFKYSAMAWYRPAPGKERELVATITSGGRTNYADSVKGRFTISRDNAKNTVYLQMNSLKPEDPAVYYCAAGSYYPYHSTTRWYVYWGQGTQVTVSS | high polyreactivity
13 | QVQLVESGGGLVQAGGSLRLSCAASGSIFKYYAMGWYRQAPGKERELVAAISSTGGSTYYAHSLKGRFTISRDNANYTVYLQMNSLKTEDTAVYYCNTTYIWKNYDYWGQGTQVTVSS | high polyreactivity
14 | QVQLVESGGGLVQAGGSLRLSCAASGSIFKYYAMGWYRQAPGKERELVAAITTTGGITYYADSVNGRFTISRDNAKNTDYLQMISLKPEDTAVYYCNAYYPIRSSPYGYYYCGQGTQVTVSS | high polyreactivity
15 | QVQLVESGGGLVQAGGSLRLSCAASGSIFKYYTMGWYRPAPGKERELVAAITWRGGRTYYADSVKGRFTISRDNAKNTVYLQMNSLKPEDTAVYYCNTASWGFASYYYTYNYWGQGTQVTVSS | high polyreactivity
16 | QVQLVESGGGLVQAGGSLRLSCAASGSIFLAYAMGWYRQAPGKEREFVAAISFSDGSTYYADSVKGRFTISRDNAKNTVYFQMNSLKPEDTAVYYCNKGASPDDYDYWGQGTQVTVSS | low polyreactivity
17 | QVQLVESGGGLVQAGGSLRLSCAASGSIFLAYAMGWYRQAPGKERELVAAITSGGGRTYYADSVKGRFTISRDNAKNTVYLQMNSLKPEDTAVYYCAASYRAGQMWYDYWGQGTQVTVSS | high polyreactivity
18 | QVQLVESGGGLVQAGGSLRLSCAASGSIFLENAMGWYRQAPGKERELVAAISRSGGSTYYADSVKGRFTISRDNAKNTVYLQMNSLKPEDTAVYYCNAYRDVYNYFFGAKYDYWGQGTQVTVSS | high polyreactivity
19 | QVQLVESGGGLVQAGGSLRLSCAASGSIFLFNAMGWYRQAPGKERELVAAINRDDSTYYADSVKGRFTISRDNAKNTVYLLMISLKPEDTAVYYCAAPVLHAYYGYGYWGQGTQVTVSS | low polyreactivity
20 | QVQLVESGGGLVQAGGSLRLSCAASGSIFLINAMGWYRQAPGKERELVAAISWSGGSTSYADSVKGRFTISRDNAKNTVYFQMNSLKPEDTAVFYCAAESISYRPGYDYWRQGTQVTVSS | low polyreactivity
21 | QVQLVESGGGLVQAGGSLRLSCAASGSIFLIYAMGWYRQAPGKERELVAAITGGGTTNYADSVKGRFTISRDNAKNTVYLQMNSLKPEDTAVYYCNAVPRSWSPYRHWFDYWGQGTQVTVSS | low polyreactivity
22 | QVQLVESGGGLVQAGGSLRLSCAASGSIFLKYAMGWYRQAPGKERELVAAISRGGDTNYADSVKGRFTISRDNAKNTVYLQMNSLKPEDTAVYYCAARPGLYFTRRGRYYWGQGTQVTVSS | high polyreactivity

Row | Sequence | polyreactivity (PSR sort gate)
23 | QVQLVESGGGLVQAGGSLRLSCAASGSIFLKYTMGRYRQAPGKERELVAAITSGGTTNYADSVKGRFTISRDNAKNTVYLQMNSLKPEDTAVYYCARDSYQLGLIRDPLEYDYWGQGTQETVSS | low polyreactivity
24 | QVQLVESGGGLVQAGGSLRLSCAASGSIFLQNAMGWYRQAPGKERELVAAITNGGSTNYADSVKGRFTISRDNAKNTVYLQMNSLKPEDSAVYYCAAYPLYTGSYDRGGYWGQGTQVTVSS | low polyreactivity
25 | QVQLVESGGGLVQAGGSLRLSCAASGSIFLRYAMGWYRQAPGKERELVASITSGGSRYYADSVKGRFTISRDNAKNTVYFQMNSLKPEDTAVYYCNALPYRYRRYDYWGQGTQVTVSS | low polyreactivity
26 | QVQLVESGGGLVQAGGSLRLSCAASGSIFLSNMGWYRQAPGKERELVAAISRNGGSTYYADSVKGRFTISRDNAKNTVYLQMNSLKPEDTAVYYCAVQRYWGQGTQVTVSS | high polyreactivity
27 | QVQLVESGGGLVQAGGSLRLSCAASGSIFLSYDMGWYRQAPGNESELVAAITQSGGSTYYADSVKGRFTISRDNAKNTVYLQMNSLKPEDTAVYYCAADYGYFPQETYPTYGYYYWGQGTQVTVSS | low polyreactivity
28 | QVQLVESGGGLVQAGGSLRLSCAASGSIFLSYTMGRYRQAPGKERELVAAITSGGSTKYADSVKGRFTISRDNAKNTVYLQMNSLKPEDTAVYYCNATPYSRLGYWGQGTQVTVSS | high polyreactivity
29 | QVQLVESGGGLVQAGGSLRLSCAASGSIFLTYTMGWYRQATGKERELVAAITDSDGSTSYADSVKGRFTISRDNAKNTVYLQMNSLKPEDTAVYYCAVEGYWYAGWYAMDYWGQGTQVTVSS | low polyreactivity
30 | QVQLVESGGGLVQAGGSLRLSCAASGSIFLVNAMGWYRQAPGERKELVAAISWSSGSTYYADSVKGRFTISRDNAKNTVYLQMNSLKPEDTAVYYCAKRSSITYRYDYWGQGTQVTVSS | high polyreactivity
31 | QVQLVESGGGLVQAGGSLRLSCAASGSIFLVYAMGWYRQAPGKERELVAAIRISDSTNYADSVKGRFTISRDNAKNTVYLQMNSLKPEDTAVYYCNVDTVGLGGEKGGYYWGQGTQVTVSS | low polyreactivity
32 | QVQLVESGGGLVQAGGSLRLSCAASGSIFLWNAMGWYRQAPGKEREFVASITSRGGSTYYADSVKGRFTISRDNAKNTVYLQMNSLKPEDTAVYYCAAVRSKYLYYQGGYSSYGYWGQGTQVTVSS | high polyreactivity
33 | QVQLVESGGGLVQAGGSLRLSCAASGSIFLYNAMGWYRQAPGKERELVAAISAIGSNTYYADSVKGRFTISRDNAKNTVYLQMNSLKPEDTAVYYCAAESVNVVNFGTRVGYWGQGTQVTVSS | high polyreactivity
34 | QVQLVESGGGLVQAGGSLRLSCAASGSIFLYNAMGWYRQAPGKERELVAAISSSSDRTYYADSVKGRFTISRDNAKNTVYLQMNSLKPEDTAVYYCNVVYIGWRKYEYWGQGTQVTVSS | high polyreactivity
35 | QVQLVESGGGLVQAGGSLRLSCAASGSIFLYNAMGWYRQAPGKESEFDAAISWSGVSTYYADSVKGRFTISRDNAKNTVYLHMNSLKPEDTAVYYCNAVYARVPIYDYWGQGTQVTVSS | low polyreactivity
36 | QVQLVESGGGLVQAGGSLRLSCAASGSIFLYNAMRWYRQAPGKERELVAAKSYSGASTYYADSVKGRFTISRDNAKNTVYLQMNSLKAEDTAVYYCAKTFRYKWPYGTPKYDYWGQGTQVTVSS | high polyreactivity
37 | QVQLVESGGGLVQAGGSLRLSCAASGSIFLYYAMGWYIQAPGKERELVAGIRRGGRTNYADSVKGRFTISRDNAKNTVYLQMNSLKPEDTAVYYCAKGGYWGHGTQVTVSS | high polyreactivity
38 | QVQLVESGGGLVQAGGSLRLSCAASGSIFLYYAMGWYTQAPGKERELVASISSTGSTYYADSVKGRFTISRDNAKNTVYLLINSLKPEDTGVYYCAKRRWYYYPRYSLSTQMDYWGQGTQVTVSS | high polyreactivity
39 | QVQLVESGGGLVQAGGSLRLSCAASGSIFMRYSMGWYRQAPGKDRELVAAITRSGGSTYYADSVKGRFTISRDNAKNTVYLQMNSLKPEDTAVYFCAAYTFVTVGYDYWGQGTQVTVSS | high polyreactivity
40 | QVQLVESGGGLVQAGGSLRLSCAASGSIFNGNAMGWYRQAPGKERELVAAITRRGGRTYYADSVKGRFTISRDNAKNTVYLQMNSLKPEDTAVYYCNAYSKAVQGGYYYWGQGTQVTVSS | high polyreactivity
41 | QVQLVESGGGLVQAGGSLRLSCAASGSIFNGYAMGWYRQAPGKERELVAAISWSGVGTYYADSVKGRFTISRDNAKNTVYLEMNSLKPEDTAVYYCNAVATHDWLRVDTYEYWGQGTQVTVSS | low polyreactivity
42 | QVQLVESGGGLVQAGGSLRLSCAASGSIFNGYAMGWYRQAPGKERELVATITRGGGSTYYADSVKGRFTISRDNAKNTVYLQMNSLKPEDTAVYYCAKTYFYGVRRFNYWGQGTQVTVSS | high polyreactivity
43 | QVQLVESGGGLVQAGGSLRLSCAASGSIFNINAMGWCRQAPGKDRELVATITSGGTTSYADSVKGRFTISRDNAKNTVYLQMNSLKPEDTAVYYCNAEIYPIVKAGRQHPRRYDYWGQGTQVTVSS | low polyreactivity
